According to US12692524B2, “Sialyltransferases and their use in producing sialylated oligosaccharides” (Chr. Hansen A/S, priority 2017, dated 2026):

B1: SiaT4: sialyltransferase of Helicobacter acinonychis, acc. NC_008229, SEQ ID NO: 11 (protein, listed as Heliobacter acinonychis)
chain: MNKKPLIIAGNGPSIKDLDYALFPKDFDVFRCNQFYFEDKYYLGREIKGVFFNAHVFDLQMKITKAIVKNGEYHPDHIYCTHVEPYGYVNGNQQLMQEYLEKHFVGVRSTYAYLKDLEPFFILHSKYRNFYDQHFTTGIMMLLVAIQLGYKEIYLCGIDFYENGFGHFYENQGGFFEEDSDPMHDKNIDIQALELAKKYAKIYALVPNSALVKMIPLSSQKGVLEKVKDRIGLGEFKREKFGQKELERQKELERQKELERQKELERQKELERQKELERQKELERQKELERQKELERQKELERQKELERQKELERQKELERQKELERQKELERQKELELERSLKARLKAVLASKGIRGDNLIIVSLKDTYRLFKGGFALLLDLKALKSIIKAFLKR
B2: SiaT5: sialyltransferase of Helicobacter acinonychis, acc. NC_008229, SEQ ID NO: 33 (protein, listed as Heliobacter acinonychis)
chain: MGTIKKPLIIAGNGPSIKDLDYALFPKDFDVFRCNQFYFEDKYYLGREIKGVFFNPCVLSSQMQTVQYLMDNGEYSIERFFCSVSTDRHDFDGDYQTILPVDGYLKAHYPFVCDTFSLFKGHEEILKHVKYHLKTYSKELSAGVLMLLSAVVLGYKEIYLVGIDFGASSWGHFYDESQSQHFSNHMADCHNIYYDMLTICLCQKYAKLYALAPNSPLSHLLTLNPQAKYPFELLDKPIGYTSDLIISSPLEEKLLEFKNIEEKLLEFKNIEEKLLEFKNIEEKLLEFKNIEEKLLEFKNIEEKLLEFKNIEEKLLEFKNIEEKLLEFKNIEEKLLEFKNIEEKLLEFKNIEEKLLEFKNIEEKLLEFKNIEEKLLEFKNIEEKLLASRLNNILRKIKRKILPFFWGGGVTPTLKVSFRWGAA
B3: SiaT7: sialyltransferase of Pasteurella dagmatis strain DSM 22969, acc. AFY98851, SEQ ID NO: 7 (protein, listed as Pasteurella dagmatis)
chain: MTIYLDPASLPTLNQLMHFTKESEDKETARIFGFSRFKLPEKITEQYNNIHFVEIKNNRPTEDIFTILDQYPEKLELDLHLNIAHSIQLFHPILQYRFKHPDRISIKSLNLYDDGTMEYVDLEKEENKDIKSAIKKAEKQLSDYLLTGKINFDNPTLARYVWQSQYPVKYHFLSTEYFEKAEFLQPLKTYLAGKYQKMDWSAYEKLSPEQQTFYLKLVGFSDETKQLFHTEQTKFIFTGTTTWEGNTDIREYYAKQQLNLLKHFTHSEGDLFIGDQYKIYFKGHPRGGDINDYILKHAKDITNIPANISFEILMMTGLLPDKVGGVASSLYFSLPKEKISHIIFTSNKKIKNKEDALNDPYVRVMLRLGMIDKSQIIFWDSLKQL
B4: SiaT3: sialyltransferase of Campylobacter jejuni strain OH4384, acc. AX934425, SEQ ID NO: 12 (protein, listed as Campylobacter jejuni)
chain: MGKKVIIAGNGPSLKEIDYSRLPNDFDVFRCNQFYFEDKYYLGKKCKAVFYNPILFFEQYYTLKHLIQNQEYETELIMCSNYNQAHLENENFVKTFYDYFPDAHLGYDFFKQLKDFNAYFKFHEIYFNQRITSGVYMCAVAIALGYKEIYLSGIDFYQNGSSYAFDTKQKNLLKLAPNFKNDNSHYIGHSKNTDIKALEFLEKTYKIKLYCLCPNSLLANFIELAPNLNSNFIIQEKNNYTKDILIPSSEAYGKFSKNIN

Assay: In vitro sialylation of LNT by protein extracts, LST-a/-b quantified by LC-MS/MS
Format: biochemical
Conditions: 5 mM LNT, 10 mM CMP-Neu5Ac, 16 hours, LC-MS/MS; relative quantity; n.d.: not detectable
Description: Escherichia coli BL21(DE3) harbouring plamids encoding for 100 sialyltransferases were grown at 30° C. in 100 ml shake flasks filled with 20 ml of 2YT medium supplemented with ampicillin 100 μg ml^−1. When the cultures reached an OD600 of 0.1 to 0.3, gene expression was induced by addition of 0.3 mM IPTG and the incubation was continued for 12 to 16 hours. Cells were harvested by centrifugation and mechanically disrupted in a defined volume of 50 mM Tris-HCl pH7.5 using glass beads. The protein extract was kept on ice until the assay started. The in vitro assay was carried out in a total volume of 25 μl including 50 mM Tris-HCl pH7.5, 5 mM MgCl2, 10 mM CMP-Neu5Ac and 5 mM LNT. The assay started with the addition of 3 μl protein extract and continued for 16 hours. Product formation was determined by mass spectrometry.
Mass spectrometry analysis was performed by MRM (multiple reaction monitoring) using a LC Triple-Quadrupole MS detection system. Precursor ions are selected and analyzed in quadrupole 1, fragmentation takes place in the collision cell using argon as CID gas, selection of fragment ions is performed in quadrupole 3. Chromatographic separation of lactose, 3′-Sialyllactose and 6′-Sialyllactose after dilution of culture supernatant 1:100 with H2O (LC/MS Grade), was performed on a XBridge Amide HPLC column (3.5 μm, 2.1×50 mm (Waters, USA) with a XBridge Amide guard cartridge (3.5 μm, 2.1×10 mm) (Waters, USA). Column oven temperature of the HPLC system was 50° C. The mobile phase was composed of acetonitrile:H2O with 10 mM ammonium acetate. A 1 μl sample was injected into the instrument; the run was performed for 3.60 min with a flow rate of 400 μl/min. 3′-Sialyllactose and 6′-Sialyllactose were analyzed by MRM in ESI positive ionization mode. The mass spectrometer was operated at unit resolution. Sialyllactose forms an ion of m/z 656.2 [M+Na]. The precursor ion of Sialyllactose was further fragmented in the collision cell into the fragment ions m/z 612.15, m/z 365.15 and m/z 314.15. Collision energy, Q1 and Q3 Pre Bias were optimized for each analyte individually. Chromatographic separation of lactose, LNT-II, LNT and LST-a or -b after dilution of particle-free biocatalysis-reaction or crude extract, respectively, 1:50 with H2O (LC/MS Grade), was performed on a XBridge Amide HPLC column (3.5 μm, 2.1×50 mm (Waters, USA) with a XBridge Amide guard cartridge (3.5 μm, 2.1×10 mm) (Waters, USA). Column oven was run at 35° C. The mobile phase was composed of acetonitrile:H2O with 0.1% ammonium hydroxide. A 1 μl sample was injected into the instrument; the run was performed for 3.50 min with a flow rate of 300 μl/min. Lactose, LNT-II, LNT as well as LST-a and -b were analyzed by MRM in ESI negative ionization mode. The mass spectrometer was operated at unit resolution. Lactose forms an ion of m/z 341.00 [M−H]. The precursor ion of Lactose was further fragmented in the collision cell into the fragment ions m/z 179.15, m/z 161.15 and m/z 101.05. LNT-II forms an ion of m/z 544.20 [M−H]. The precursor ion of LNT-II was further fragmented into the fragment ions m/z 382.10, m/z 161.00 and m/z 112.90. LNT forms an ion of m/z 706.20 [M−H]. The precursor ion of LNT was further fragmented into the fragment ions m/z 382.10, m/z 202.10 and m/z 142.00. LST-a and -b forms an ion of m/z 997.20 [M−H]. The precursor ion of LST-a and-b was further fragmented into the fragment ions m/z 290.15, m/z 202.15 and m/z 142.15. Collision energy, Q1 and Q3 Pre Bias were optimized for each analyte individually. Quantification methods were established using commercially available standards (Carbosynth, Compton, UK).
Twenty eight genes were identified to produce LST-a whereas only 6 enzymes synthesized LST-b. […] Irrespectively of the protein overexpression level, sialyltransferases that produced best were selected for determination of Km and Vmax.

| Molecule | Relative efficacy of sialyltransferases regarding in-vitro production of sialyllacto-N-tetraoses: LST-a | Relative efficacy of sialyltransferases regarding in-vitro production of sialyllacto-N-tetraoses: LST-b |
| --- | --- | --- |
| B1 | 654 |  |
| B2 |  | 1 |
| B3 | 2.25 × 10^3 |  |
| B4 | 605 |  |
